Measured values reported in patent US9657092B2, “S100A4 antibodies and therapeutic uses thereof” (LYKERA BIOMED SA, priority 2010, dated 2017).
Several values for one entry are separate records, joined by “and”; a condition that tells them apart may be missing. Equal entries are not always repeated.

Tests used:
[1] = Body weight and adverse side effects in xenograft experiments; assay type: in vivo
[2] = biological target: T1, Human S100A2 (Homo sapiens, UniProt P29034); experiment: ELISA specificity (reaction pattern of mAb); assay type: binding; parameters: key: ++++ positive reaction; − no reaction
T1 construct: purchased Abnova

[3] = biological target: T2, murine S100A4 (Mus musculus, UniProt P07091); experiment: Western-blot of NIH-3T3 mouse fibroblast extract; assay type: binding
T2 construct: total extracts from tumor cell lines of different origins and the mouse embryonic fibroblast cell line NIH3T3; endogenous in cells; host or cells: NIH-3T3 mouse fibroblasts
Experimental: Cell and tumors samples were rinsed twice with PBS and immediately lysed with ice cold Cell Lysis Buffer (150 mM NaCl, 1% IGEPAL CA630, 5 mM EDTA, 100 μg/mL PMSF, 1 mM Na3VO4, 1 mM NaF and 50 mM Tris pH 7.4). Lysates were cleared by centrifugation and the protein concentration was quantified with the Bradford reagent (Bio-Rad). Total extracts (50 μg) were resolved in a 12% SDS-polyacrilamide gel (PAGE) electrophoresis under reduced conditions and transferred to BioTrace™ PVDF membranes (PALL corporation). Membranes were blocked for 1 hour in TBS plus 0.1% Tween-20 with 5% skimmed dried milk, incubated overnight with the relevant primary antibody and then with the secondary antibodies for 1 hour in blocking buffer, washing three times for 10 min in TBS plus 0.1% Tween-20 after each incubation. Signals were developed using the ECL™ Western Blotting Detection Reagents (Amersham) and exposed to Hyperfilm™ ECL (Amersham).

[4] = biological target: T3, Mouse S100A4 (Mus musculus, UniProt P07091); experiment: ELISA specificity (reaction pattern of mAb); assay type: binding; parameters: key to Reaction Pattern of mAb in ELISA, Mouse S100A4: ++++ positive reaction; − no reaction
T3 construct: made in house

[5] = biological target: Human S100A4 (Homo sapiens, UniProt P26447); experiment: ELISA specificity (reaction pattern of mAb); assay type: binding; parameters: the final full-length recombinant S100A4 protein has an additional Gly-Ser-His at the N-terminus; His tag (pET28a) (N); made in house; host or cells: E. coli Tuner (DE3); key to Reaction Pattern of mAb in ELISA, Human S100A4: ++++ positive reaction; − no reaction
[6] = tested on: IL-8 release induced by S100A4 in THP-1 monocytes; experiment: IL-8 release in THP-1 monocytes (sandwich ELISA); assay type: cell-based, human
Experimental: Cells of the human monocytic leukemia cell line THP-1 (ATCC) were grown in RPMI 1640 culture medium supplemented with 10% FCS and 1% penicillin/streptomycin, at 37° C. in 5% CO2 in a humidified incubator. Cells were plated at 5.0×10^5 cells/well. […] Anti-mouse IgG (Fc specific) was always added in all the cases for preventing the Fc receptor response. Cell culture supernatants were collected after 24 h and stored at −20° C. The levels of IL-8 were analyzed by sandwich ELISA.

[7] = tested on: MiaPACA-2 tumors microvasculature; experiment: Tumor microvasculature quantification by CD31 immunostaining; assay type: in vivo, nude mice
Experimental: Tumors from MiaPACA-2 xenograft tumor model were OCT (Tissue-Tek®, Sakura) embedded and frozen. One cryosection (5 μm) corresponding to the central part of each tumor was analyzed. Sections were fixed in acetone/chloroform (1:1) at −20° C. for 5 min, were dried over night at room temperature, washed with PBS and treated for 10 min at 4° C. in a dark chamber with H2O2 (0.03%) in PBS. Then, sections were washed with PBS and blocked for 20 min at 4° C. using PBS-BSA (2%) plus rabbit serum (5%) (Vector) and with Avidin-biotin blocking solution (Dako) for 10 min each one at 4° C. Samples were incubated for 1 hour at room temperature with primary antibody; a monoclonal rat anti-mouse antibody directed against CD31 (dil 1:200, BD PharMingen) diluted in blocking buffer. After incubation sections were incubated with a polyclonal biotinylated anti-rat antibody as secondary antibody (dil 1:500, Vector) for 30 min at room temperature and were incubated with the ABC reagent (Pierce) for 30 min at room temperature. Finally, sections were incubated with NovaRed (Vector) for 20 min at 4° C., stained with hematoxilin Harris (Sigma) for 10 seconds and mounted using DPX non aqueous mounting medium (Sigma).
Angiogenesis quantification was measured using two criteria:
8 and 39 pictures per slice, depending on the size of tumours, were taken and analyzed using the NIH ImageJ imaging software.
Comparisons between groups were made using the two-tailed nonparametric Mann Whitney U test. Differences for which P value was less than 0.05 were considered statistically significant.
The inventors investigated whether the 5C3 would actually affect tumor angiogenesis in vivo. The evaluation of tumor angiogenesis was made based on the CD31 immunostaining and two analytics approximations: MicroVessel Density (M.V.D.) and the fractional area of vessels (A.A.).

[8] = biological target: T4, Human S100P (Homo sapiens, UniProt P25815); experiment: ELISA specificity (reaction pattern of mAb); assay type: binding; parameters: key: ++++ positive reaction; − no reaction
T4 construct: made in house
T4 sequence (P25815 1-95): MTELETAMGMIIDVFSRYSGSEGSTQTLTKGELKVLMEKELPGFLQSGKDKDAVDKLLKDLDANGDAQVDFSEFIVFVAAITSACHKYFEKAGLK

[9] = 25 mg/kg i.p. three times a week
[10] = group G2, MiaPACA-2 tumors, day 30
[11] = individual animal of G2 (5C3 treatment group), MiaPACA-2 tumor, day 30

Sequence of Human S100A4 (P26447 with tags, fused parts or gaps): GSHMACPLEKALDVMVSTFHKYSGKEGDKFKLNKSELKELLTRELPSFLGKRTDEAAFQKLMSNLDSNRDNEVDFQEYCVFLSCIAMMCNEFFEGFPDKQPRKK
T3 sequence (P07091 whole entry): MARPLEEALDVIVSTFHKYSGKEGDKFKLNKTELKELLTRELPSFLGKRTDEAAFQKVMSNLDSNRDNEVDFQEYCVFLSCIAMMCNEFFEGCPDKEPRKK
T1 sequence (P29034 whole entry): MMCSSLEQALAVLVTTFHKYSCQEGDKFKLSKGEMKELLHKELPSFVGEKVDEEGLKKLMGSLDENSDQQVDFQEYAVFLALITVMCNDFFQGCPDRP
T2 sequence (P07091 whole entry): as the sequence (P07091 whole entry) above

B1: 5C3: mouse monoclonal anti-S100A4 antibody, IgG1, from hybridoma ECACC 10022401; VL SEQ ID NO: 1, VH SEQ ID NO: 2 (antibody, V domains shown)
VH: EAQLQQSGAELVKPGASVKLSCTASGFNIQETYMHWVKQRPEQGLEWIGRIDPANGNTKDDPKFQGKASITVDTSSNTAYLQLSSLTSEDTAVYYCASSYAMDYWGQGTSVTVSS
VL: DVLMTQTPLSLPVSLGDQASISCRSSQSIVHSNGNTYLEWYLQKTGQSPELLIYKVSNRLSGVPDRFSGSGSGTDFTLKISRVEAEDLGVYYCFQGSHVPFTFGSGTKLEIK
modifications: VH region of the 5C3 monoclonal antibody; VL region of the 5C3 monoclonal antibody
adverse side effects (motor incoordination, paralysis, ataxia, convulsions, diarrhoea, cachexia, erythema, hypothermia, mortality) [1, 9]: did not observe adverse side effects
body weight loss [1, 9]: No body weight loss
macroscopic analyses of organs [1, 9]: did not evidence abnormalities in organs
tolerability ([1]; 25 mg/kg, three times a week up to the end of experiment): well-tolerated
Reaction Pattern of mAb in ELISA, Human S100A2 [2]: −
reaction with murine S100A4 in Western-blot [3]: also with murine S100A4
Reaction Pattern of mAb in ELISA, Mouse S100A4 [4]: ++++
reaction with murine S100A4 by ELISA ([4]; purified protein): reacted
Reaction Pattern of mAb in ELISA, Human S100A4 [5]: ++++
reaction with human S100A4 by ELISA ([5]; purified protein): reacted
IL-8 release induced by S100A4 ([6]; S100A4 3 μM, 24 h): can be blocked
IL-8 levels in absence of S100A4 ([6]; absence of S100A4, data not shown): no effect
reduction in microvessel density compared with control group (vehicle) ([7]; MiaPACA-2 tumors): approximately 40%
reduction of the section area occupied by vessels compared with control group (vehicle) ([7]; MiaPACA-2 tumors): ~30%
AA (%) Mean [7, 10]: 0.69%
AA (%) Median [7, 10]: 0.59%
MVD (v.p./mm^2) Mean [7, 10]: 27.42 v.p./mm^2
MVD (v.p./mm^2) Median [7, 10]: 26.45 v.p./mm^2
% A.A. (Fractional area of vessels) [7, 11]: 1.14% and 1.26% and 0.53% (2×) and 0.41% and 0.66% and 0.72% and 0.32%
M.V.D. (MicroVascular Density) [7, 11]: 31.55 v.p./mm^2 and 44.37 v.p./mm^2 and 20.23 v.p./mm^2 and 16.81 v.p./mm^2 and 29.84 v.p./mm^2 and 36.23 v.p./mm^2 and 17.31 v.p./mm^2 and 23.05 v.p./mm^2
No of vessels [7, 11]: 514 and 460 and 240 and 203 and 440 and 426 and 158 and 174
Reaction Pattern of mAb in ELISA, Human S100P [8]: −
